The record followed here is paper PMC6131546, “Interaction of TBC1D9B with Mammalian ATG8 Homologues Regulates Autophagic Flux” (Scientific Reports, 2018).

The target in the experiment is T1, FLAG-TBC1D9Bα from a stable HEK293 cell line (human, UniProt Q66K14-1 1-1250).
T1 construct: human TBC1D9B, alpha splice form, in pcDNA3.1-FLAG; also called FLAG-tagged recombinant TBC1D9B; source: purified (anti-FLAG M2 beads, eluted with glycine HCl) for the pull-down; in lysate for the co-IP
Briefly: pull-down; GST fusion on glutathione-sepharose beads, incubated with recombinant FLAG-TBC1D9B or His-LC3B at 4 °C for 1 hour; 20 mM Tris pH 7.4, 0.1 mM EDTA, 100 mM NaCl; SDS-PAGE with Coomassie Brilliant Blue. To be noted: both partners purified.

T1 sequence (Q66K14 whole entry, canonical isoform): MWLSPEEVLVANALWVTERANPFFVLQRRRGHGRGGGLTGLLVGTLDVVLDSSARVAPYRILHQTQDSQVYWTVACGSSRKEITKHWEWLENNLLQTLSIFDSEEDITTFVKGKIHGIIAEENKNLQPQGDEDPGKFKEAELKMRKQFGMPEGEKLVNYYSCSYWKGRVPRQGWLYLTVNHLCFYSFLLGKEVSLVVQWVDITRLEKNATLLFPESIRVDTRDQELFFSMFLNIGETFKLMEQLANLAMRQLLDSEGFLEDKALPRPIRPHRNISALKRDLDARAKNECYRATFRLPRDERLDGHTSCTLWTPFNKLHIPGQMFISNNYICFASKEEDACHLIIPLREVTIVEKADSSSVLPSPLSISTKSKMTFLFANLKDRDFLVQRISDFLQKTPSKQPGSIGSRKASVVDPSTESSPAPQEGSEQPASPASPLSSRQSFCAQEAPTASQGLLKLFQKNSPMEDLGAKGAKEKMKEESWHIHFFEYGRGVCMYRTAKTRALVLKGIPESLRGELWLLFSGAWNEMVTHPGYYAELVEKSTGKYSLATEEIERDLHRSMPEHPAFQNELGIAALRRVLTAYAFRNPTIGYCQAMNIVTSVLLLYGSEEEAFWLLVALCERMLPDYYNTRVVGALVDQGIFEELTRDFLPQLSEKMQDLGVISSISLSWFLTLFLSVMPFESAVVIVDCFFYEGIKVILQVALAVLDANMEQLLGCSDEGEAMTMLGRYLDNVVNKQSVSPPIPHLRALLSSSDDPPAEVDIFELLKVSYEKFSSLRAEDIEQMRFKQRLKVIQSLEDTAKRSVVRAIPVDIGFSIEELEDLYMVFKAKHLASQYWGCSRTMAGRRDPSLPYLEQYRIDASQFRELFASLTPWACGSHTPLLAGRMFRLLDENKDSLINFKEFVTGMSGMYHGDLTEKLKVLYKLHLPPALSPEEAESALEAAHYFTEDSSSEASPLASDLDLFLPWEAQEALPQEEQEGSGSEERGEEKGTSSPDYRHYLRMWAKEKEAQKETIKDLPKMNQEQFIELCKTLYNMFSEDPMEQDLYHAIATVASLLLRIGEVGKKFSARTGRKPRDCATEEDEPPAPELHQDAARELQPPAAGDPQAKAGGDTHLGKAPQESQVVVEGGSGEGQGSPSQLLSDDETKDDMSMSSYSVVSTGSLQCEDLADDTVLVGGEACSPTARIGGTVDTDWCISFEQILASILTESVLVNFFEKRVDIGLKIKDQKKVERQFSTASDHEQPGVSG

B1: recombinant GST-GABARAP (natural protein, human, UniProt O95166 1-117, looked up)
chain: MKFVYKEEHPFEKRRSEGEKIRKKYPDRVPVIVEKAPKARIGDLDKKKYLVPSDLTVGQFYFLIRKRIHLRAEDALFFFVNNVIPPTSATMGQLYQEHHEEDFFLYIAYSDESVYGL
notes: human GABARAP, cloned into pGEX-6p; also called GST-fused GABARAP; source: E. coli BL21, purified (glutathione-sepharose)
In the case of B1, the binding result was “binds”.
